Measured values taken from paper PMC9738063, “Ethylene Response Factor MaERF012 Modulates Fruit Ripening by Regulating Chlorophyll Degradation and Softening in Banana”.

B1: MaPL8 probe (dsDNA)
DNA 1: ATATCTGTGTGCTCTTGCGAGGCGGCTGGACTTTCCTGCACGCAAT
DNA 2: ATTGCGTGCAGGAAAGTCCAGCCGCCTCGCAAGAGCACACAGATAT
B2: MaGWD1 probe (dsDNA)
DNA 1: CTAATCACATGATGGTGTGTGGCCGCCATCATTCTCTCCCAAGCAACC
DNA 2: GGTTGCTTGGGAGAGAATGATGGCGGCCACACACCATCATGTGATTAG
B3: MaEXP-A8 probe (dsDNA)
DNA 1: GTTGGTTCATAAGGTGCTCCGGCGGCATGTGCTGCAGACACGAAGT
DNA 2: ACTTCGTGTCTGCAGCACATGCCGCCGGAGCACCTTATGAACCAAC
B4: MaAMY3 probe (dsDNA)
DNA 1: CGGACTCACGCCACACCACAGCCGCCCCTGACGCAATTAGCGTCGA
DNA 2: TCGACGCTAATTGCGTCAGGGGCGGCTGTGGTGTGGCGTGAGTCCG
B5: MaXYL23-like probe (dsDNA)
DNA 1: GGCAATCAGTCGGAGGAGGAGCCGCCCGATTTGGTGCACTATCATC
DNA 2: GATGATAGTGCACCAAATCGGGCGGCTCCTCCTCCGACTGATTGCC
B6: MaSGR1 probe (dsDNA)
DNA 1: ATCATATTTCTGAATTAAGGTACTGGCGGCACATCGATATGGTATC
DNA 2: GATACCATATCGATGTGCCGCCAGTACCTTAATTCAGAAATATGAT

What follows are binders tested against GST-MaERF012 (Musa acuminata 'Fenjiao' banana, UniProt A0A804KA32 1-188) (assay: EMSA; LightShift Chemiluminescent EMSA Kit; buffer, salt, pH and temperature not stated). Settings: protein: recombinant; tags: N-terminal GST (pGEX-4T-1); label: biotin 3' end; blunt.
Sequence of GST-MaERF012 (A0A804KA32 entry or part of it): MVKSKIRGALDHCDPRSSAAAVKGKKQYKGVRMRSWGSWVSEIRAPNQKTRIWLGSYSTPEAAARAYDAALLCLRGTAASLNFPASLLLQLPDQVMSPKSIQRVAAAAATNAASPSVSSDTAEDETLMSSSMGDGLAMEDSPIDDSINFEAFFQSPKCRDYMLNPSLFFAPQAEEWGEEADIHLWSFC

Binding result, binds:
B1
B2
B3
B4
B5
B6
